Assays:
[1] = Phosphatase activity with fluorogenic substrate DiFMUP; assay type: biochemical
Procedure: Purified, recombinant KAPh phosphatase domain (amino acids 83-464 SEQ ID NO 4) (100 μg/mL) and full-length PTEN (amino acids 1-403) (100 μg/mL) were each mixed with a fluorogenic phosphatase substrate 6,8-difluoro-4-methylumbelliferyl phosphate (DiFMUP) (Molecular Probes, Eugene, Oreg.) at a final concentration of a 100 μM in assay buffer (10 mM sodium acetate, pH 6.0, 150 mM NaCl, 5 mM DTT). Following incubation at ambient temperature for 15 or 60 min., the fluorescence intensity of the 6,8-difluoro-4-methylumbelliferone (DiFMU) product was measured in triplicate and used as an assessment of phosphatase activity. A Victor 5 microplate reader from Wallac (Turku, Finland) was used to read the fluorescence intensity from 384-well microplates (Corning Inc., Corning, N.Y.).

[2] = Peptide phosphatase assay (BIOMOL green); assay type: biochemical; settings: any peptide substrates examined; data not shown
[3] = target: T1, 6xHis-tagged KAPh full-length protein (expressed in HEK 293 cells from pcDNA4/HisMax) (Homo sapiens, UniProt Q63HR2 26-1409, limits assumed); assay: GST pull-down from HEK 293 lysate, anti-HisG blot
T1 construct: Used as HEK 293 cell lysate; also called full-length KAPh; hexahistidine-tagged full-length KAPh
T1 sequence: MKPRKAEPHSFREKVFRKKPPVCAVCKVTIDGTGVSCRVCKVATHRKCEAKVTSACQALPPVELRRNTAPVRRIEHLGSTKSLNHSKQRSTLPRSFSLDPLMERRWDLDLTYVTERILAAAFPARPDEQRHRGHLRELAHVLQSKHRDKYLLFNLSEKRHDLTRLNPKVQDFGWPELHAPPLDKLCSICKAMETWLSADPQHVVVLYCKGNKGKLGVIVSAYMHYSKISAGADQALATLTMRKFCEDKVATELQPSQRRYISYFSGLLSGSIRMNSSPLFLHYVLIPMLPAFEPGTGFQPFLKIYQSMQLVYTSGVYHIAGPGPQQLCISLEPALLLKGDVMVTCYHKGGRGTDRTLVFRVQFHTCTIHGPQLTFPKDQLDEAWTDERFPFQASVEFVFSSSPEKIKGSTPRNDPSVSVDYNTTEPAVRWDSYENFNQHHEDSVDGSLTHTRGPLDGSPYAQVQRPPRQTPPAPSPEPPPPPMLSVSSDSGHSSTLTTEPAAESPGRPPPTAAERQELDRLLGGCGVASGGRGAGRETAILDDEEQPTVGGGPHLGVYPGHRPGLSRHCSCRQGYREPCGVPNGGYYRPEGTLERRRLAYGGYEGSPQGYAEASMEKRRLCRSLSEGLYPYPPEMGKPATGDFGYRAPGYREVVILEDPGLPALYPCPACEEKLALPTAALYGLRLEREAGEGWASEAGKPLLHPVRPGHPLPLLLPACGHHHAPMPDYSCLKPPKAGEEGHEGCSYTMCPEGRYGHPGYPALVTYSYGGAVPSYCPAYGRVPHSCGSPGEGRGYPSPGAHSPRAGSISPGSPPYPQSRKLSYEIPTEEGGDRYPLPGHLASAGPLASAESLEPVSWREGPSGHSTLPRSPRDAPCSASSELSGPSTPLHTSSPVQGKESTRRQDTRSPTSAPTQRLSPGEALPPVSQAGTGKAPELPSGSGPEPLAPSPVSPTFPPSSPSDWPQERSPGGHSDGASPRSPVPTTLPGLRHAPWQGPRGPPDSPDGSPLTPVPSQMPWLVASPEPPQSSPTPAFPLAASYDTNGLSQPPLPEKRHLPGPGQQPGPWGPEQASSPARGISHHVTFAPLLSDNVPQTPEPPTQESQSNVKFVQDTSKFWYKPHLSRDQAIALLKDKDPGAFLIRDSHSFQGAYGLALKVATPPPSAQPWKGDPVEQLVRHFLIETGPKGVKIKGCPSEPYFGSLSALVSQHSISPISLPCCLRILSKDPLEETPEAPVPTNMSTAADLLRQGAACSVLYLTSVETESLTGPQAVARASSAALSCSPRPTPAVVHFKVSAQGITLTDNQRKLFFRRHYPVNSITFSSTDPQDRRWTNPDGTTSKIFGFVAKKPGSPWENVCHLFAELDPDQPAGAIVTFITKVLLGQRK

[4] = target: T2, GST (baculovirus-expressed glutathione S-transferase alone) (UniProt P08515 1-218 = GST); assay: GST pull-down from HEK 293 lysate, anti-HisG blot
T2 construct: Control; also called GST alone
T2 sequence (P08515 whole entry): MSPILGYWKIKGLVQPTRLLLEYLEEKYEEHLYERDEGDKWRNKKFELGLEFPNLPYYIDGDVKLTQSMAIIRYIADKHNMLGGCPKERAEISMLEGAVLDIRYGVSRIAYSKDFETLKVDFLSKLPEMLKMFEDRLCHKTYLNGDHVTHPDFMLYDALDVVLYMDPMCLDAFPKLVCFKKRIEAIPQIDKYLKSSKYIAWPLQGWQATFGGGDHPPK

In the case of “PTEN: full-length PTEN (amino acids 1-403), tumor suppressor with phosphatase activity, used as comparator [reference compound]”, the “fluorescent product (DiFMU) generated, fold over buffer control” value ([1]; 100 μg/mL protein, 100 μM DiFMUP, pH 6.0, ambient temperature, 60 min incubation) is reported as 6 fold and the “phosphatase activity using peptide substrates” value [2] is reported as “unable to detect significant, reproducible phosphatase activity”.

B1: GST Tie2 wild-type (GST fusion of the intracellular domain of human Tie2/TEK) (receptor, UniProt Q02763 770-1124, looked up)
chain: LQLKRANVQRRMAQAFQNVREEPAVQFNSGTLALNRKVKNNPDPTIYPVLDWNDIKFQDVIGEGNFGQVLKARIKKDGLRMDAAIKRMKEYASKDDHRDFAGELEVLCKLGHHPNIINLLGACEHRGYLYLAIEYAPHGNLLDFLRKSRVLETDPAFAIANSTASTLSSQQLLHFAADVARGMDYLSQKQFIHRDLAARNILVGENYVAKIADFGLSRGQEVYVKKTMGRLPVRWMAIESLNYSVYTTNSDVWSYGVLLWEIVSLGGTPYCGMTCAELYEKLPQGYRLEKPLNCDDEVYDLMRQCWREKPYERPSFAQILVSLNRMLEERKTYVNTTLYEKFTYAGIDCSAEEAA
modifications: some degree of tyrosine phosphorylation after in vitro autophosphorylation; sites not listed
notes: domain: intracellular domain; also called Tie2 kinase; not shown: glutathione S-transferase (GST) encoded by the pAcGHLT baculovirus transfer vector (Pharmingen); in-frame fusion, linker
B1: no binding [3].

B2: 6xHis-tagged KAPh SH2 domain (expressed in HEK 293 cells from pcDNA4/HisMax) (other, not shown: small tags and cut ends)
chain: WYKPHLSRDQAIALLKDKDPGAFLIRDSHSFQGAYGLALKVATPPPSAQPWKGDPVEQLVRHFLIETGPKGVKIKGCPSEPYFGSLSALVSQHSISPISLPCCLRILS
notes: Used as HEK 293 cell lysate; also called hexahistidine-tagged KAPh SH2 domain; KAPh SH2 domain-containing protein fragment
B2: no binding [4].

B3: KAPh phosphatase domain: purified, recombinant KAPh phosphatase domain (amino acids 83-464 SEQ ID NO 4) (protein, listed as Homo sapiens)
chain: LNHSKQRSTLPRSFSLDPLMERRWDLDLTYVTERILAAAFPARPDEQRHRGHLRELAHVLQSKHRDKYLLFNLSEKRHDLTRLNPKVQDFGWPELHAPPLDKLCSICKAMETWLSADPQHVVVLYCKGNKGKLGVIVSAYMHYSKISAGADQALATLTMRKFCEDKVATELQPSQRRYISYFSGLLSGSIRMNSSPLFLHYVLIPMLPAFEPGTGFQPFLKIYQSMQLVYTSGVYHIAGPGPQQLCISLEPALLLKGDVMVTCYHKGGRGTDRTLVFRVQFHTCTIHGPQLTFPKDQLDEAWTDERFPFQASVEFVFSSSPEKIKGSTPRNDPSVSVDYNTTEPAVRWDSYENFNQHHEDSVDGSLTHTRGPLDGSPYAQVQ
For B3, the “phosphatase activity over time” value ([1]; 15 or 60 min incubation with DiFMUP) was “time-dependent increase in phosphatase activity”.

B4: GST Tie1 wild-type (GST fusion of the intracellular domain of human Tie1) (receptor, UniProt P35590 785-1138, looked up)
chain: CIRRSCLHRRRTFTYQSGSGEETILQFSSGTLTLTRRPKLQPEPLSYPVLEWEDITFEDLIGEGNFGQVIRAMIKKDGLKMNAAIKMLKEYASENDHRDFAGELEVLCKLGHHPNIINLLGACKNRGYLYIAIEYAPYGNLLDFLRKSRVLETDPAFAREHGTASTLSSRQLLRFASDAANGMQYLSEKQFIHRDLAARNVLVGENLASKIADFGLSRGEEVYVKKTMGRLPVRWMAIESLNYSVYTTKSDVWSFGVLLWEIVSLGGTPYCGMTCAELYEKLPQGYRMEQPRNCDDEVYELMRQCWRDRPYERPPFAQIALQLGRMLEARKAYVNMSLFENFTYAGIDATAEEA
modifications: some degree of tyrosine phosphorylation after in vitro autophosphorylation; sites not listed
notes: domain: intracellular domain; also called Tie1 kinase; not shown: glutathione S-transferase (GST) encoded by the pAcGHLT baculovirus transfer vector (Pharmingen); in-frame fusion, linker
B4: no binding [3].
